Data as given in publication PMC9482650, “Quantitative fragmentomics allow affinity mapping of interactomes” (Nature Communications, 2022).

Columns and labels:
Experiment in all cases: holdup assay
Set-up in all cases: key: below the threshold = too weak to quantify, mostly under pKd 3.1 to 4
Conditions in all cases: plain residues with an end cap or a label only (N-terminal biotin on a linker: ado-ado)
MAST1, Q9Y2H9 = biological target: MAST1, Q9Y2H9
MAGI3_2, Q5TCQ9 = biological target: MAGI3_2, Q5TCQ9
Inadl_1, Q8NI35 = biological target: Inadl_1, Q8NI35
APBA1_1, Q02410 = biological target: T1, APBA1_1, Q02410
T1 sequence (Q02410 651-752, limits assumed, looked up): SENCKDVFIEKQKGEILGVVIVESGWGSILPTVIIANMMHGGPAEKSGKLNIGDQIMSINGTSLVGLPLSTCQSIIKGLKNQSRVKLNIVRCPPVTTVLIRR

FRMPD2_1, Q68DX3 = biological target: FRMPD2_1, Q68DX3
SNTB1, Q13884 = biological target: T2, SNTB1, Q13884
T2 sequence (Q13884 107-205, limits assumed, looked up): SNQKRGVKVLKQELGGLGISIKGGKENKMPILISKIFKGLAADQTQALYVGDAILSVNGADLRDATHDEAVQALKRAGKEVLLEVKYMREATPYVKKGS

SYNJ2BP, P57105 = biological target: T3, SYNJ2BP, P57105
T3 sequence (P57105 8-110, limits assumed, looked up): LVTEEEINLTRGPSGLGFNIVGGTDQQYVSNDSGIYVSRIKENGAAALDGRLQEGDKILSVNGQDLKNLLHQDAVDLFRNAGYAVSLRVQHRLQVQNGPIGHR

GRID2IP_2, A4D2P6 = biological target: GRID2IP_2, A4D2P6
SHANK1, Q9Y566 = biological target: T4, SHANK1, Q9Y566
T4 sequence (Q9Y566 658-767, limits assumed, looked up): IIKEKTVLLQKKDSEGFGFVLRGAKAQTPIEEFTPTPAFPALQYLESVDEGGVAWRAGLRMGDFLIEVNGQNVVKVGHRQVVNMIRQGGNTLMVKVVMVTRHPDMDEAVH

NHERF4_4, Q86UT5 = biological target: NHERF4_4, Q86UT5
HTRA3, P83110 = biological target: T5, HTRA3, P83110
T5 sequence (P83110 354-453, limits assumed, looked up): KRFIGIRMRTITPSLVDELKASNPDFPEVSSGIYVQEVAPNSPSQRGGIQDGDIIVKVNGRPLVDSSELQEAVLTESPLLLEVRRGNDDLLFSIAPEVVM

LNX2_3, Q8N448 = biological target: T6, LNX2_3, Q8N448
T6 sequence (Q8N448 463-564, limits assumed, looked up): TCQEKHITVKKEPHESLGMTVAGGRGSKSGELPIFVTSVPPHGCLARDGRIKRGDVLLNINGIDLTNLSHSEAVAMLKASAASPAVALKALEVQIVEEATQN

GIPC2, Q8TF65 = biological target: GIPC2, Q8TF65
MPDZ_10, O75970 = biological target: T7, MPDZ_10, O75970
T7 sequence (O75970 1624-1722, limits assumed, looked up): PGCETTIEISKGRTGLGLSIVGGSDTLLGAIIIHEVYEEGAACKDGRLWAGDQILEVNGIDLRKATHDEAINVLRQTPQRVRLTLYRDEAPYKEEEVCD

APBA1_2, Q02410 = biological target: T8, APBA1_2, Q02410
T8 sequence (Q02410 742-832, limits assumed, looked up): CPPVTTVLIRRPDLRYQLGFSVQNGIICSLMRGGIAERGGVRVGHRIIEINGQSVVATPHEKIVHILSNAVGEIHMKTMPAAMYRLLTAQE

DLG2_2, Q15700 = biological target: DLG2_2, Q15700
PDZD7_3, Q9H5P4 = biological target: T9, PDZD7_3, Q9H5P4
T9 sequence (Q9H5P4 857-944, limits assumed, looked up): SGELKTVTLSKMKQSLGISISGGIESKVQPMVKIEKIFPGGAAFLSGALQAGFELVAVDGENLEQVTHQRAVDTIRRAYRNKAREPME

GRIP1_3, Q9Y3R0 = biological target: T10, GRIP1_3, Q9Y3R0
T10 sequence (Q9Y3R0 247-346, limits assumed, looked up): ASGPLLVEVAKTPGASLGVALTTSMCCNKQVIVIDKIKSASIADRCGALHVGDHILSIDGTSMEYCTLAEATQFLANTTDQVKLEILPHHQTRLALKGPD

GRID2IP_1, A4D2P6 = biological target: GRID2IP_1, A4D2P6
TX1BP3, O14907 = biological target: T11, TX1BP3, O14907
T11 sequence (O14907 10-122, limits assumed, looked up): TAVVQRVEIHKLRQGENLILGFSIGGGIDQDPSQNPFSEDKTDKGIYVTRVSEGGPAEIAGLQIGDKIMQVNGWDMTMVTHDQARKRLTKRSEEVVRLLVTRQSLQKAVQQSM

GRIP1_7, Q9Y3R0 = biological target: T12, GRIP1_7, Q9Y3R0
T12 sequence (Q9Y3R0 999-1096, limits assumed, looked up): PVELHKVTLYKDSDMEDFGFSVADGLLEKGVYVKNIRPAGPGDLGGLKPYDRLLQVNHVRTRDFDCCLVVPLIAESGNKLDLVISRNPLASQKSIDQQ

MPP7, Q5T2T1 = biological target: T13, MPP7, Q5T2T1
T13 sequence (Q5T2T1 134-230, limits assumed, looked up): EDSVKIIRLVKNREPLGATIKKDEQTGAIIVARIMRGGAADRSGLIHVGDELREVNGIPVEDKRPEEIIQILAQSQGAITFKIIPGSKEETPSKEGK

PARD3_3, Q8TEW0 = biological target: PARD3_3, Q8TEW0
PARD3_3, Q8TEW0, sequence (Q8TEW0 582-685): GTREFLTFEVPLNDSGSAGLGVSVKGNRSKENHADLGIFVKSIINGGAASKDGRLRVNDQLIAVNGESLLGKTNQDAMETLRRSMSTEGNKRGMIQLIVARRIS

FRMPD2_1, Q68DX3, sequence (Q68DX3 770-861): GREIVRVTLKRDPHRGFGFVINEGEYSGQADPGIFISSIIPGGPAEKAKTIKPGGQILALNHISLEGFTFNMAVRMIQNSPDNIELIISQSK
Inadl_1, Q8NI35, sequence (Q8NI35 113-229): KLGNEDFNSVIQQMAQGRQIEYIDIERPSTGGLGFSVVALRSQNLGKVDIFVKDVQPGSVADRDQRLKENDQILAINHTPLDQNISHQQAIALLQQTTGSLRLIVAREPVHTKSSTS
GRID2IP_2, A4D2P6, sequence (A4D2P6 272-370): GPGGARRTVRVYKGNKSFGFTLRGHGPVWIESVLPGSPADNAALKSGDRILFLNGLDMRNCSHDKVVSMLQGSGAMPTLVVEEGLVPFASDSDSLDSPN
DLG2_2, Q15700, sequence (Q15700 189-283): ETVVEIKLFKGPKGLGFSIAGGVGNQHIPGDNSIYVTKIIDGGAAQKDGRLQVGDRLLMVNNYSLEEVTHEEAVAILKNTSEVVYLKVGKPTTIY
MAST1, Q9Y2H9, sequence (Q9Y2H9 962-1065): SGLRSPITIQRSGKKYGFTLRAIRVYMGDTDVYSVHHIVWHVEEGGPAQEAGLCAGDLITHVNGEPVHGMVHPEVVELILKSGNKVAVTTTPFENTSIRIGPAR
GIPC2, Q8TF65, sequence (Q8TF65 112-203): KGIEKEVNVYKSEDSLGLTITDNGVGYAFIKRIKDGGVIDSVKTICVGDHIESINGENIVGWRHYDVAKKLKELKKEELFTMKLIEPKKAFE
NHERF4_4, Q86UT5, sequence (Q86UT5 464-550): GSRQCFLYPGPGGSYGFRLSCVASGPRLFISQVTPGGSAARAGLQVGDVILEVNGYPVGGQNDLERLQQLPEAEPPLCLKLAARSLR
MAGI3_2, Q5TCQ9, sequence (Q5TCQ9 398-503): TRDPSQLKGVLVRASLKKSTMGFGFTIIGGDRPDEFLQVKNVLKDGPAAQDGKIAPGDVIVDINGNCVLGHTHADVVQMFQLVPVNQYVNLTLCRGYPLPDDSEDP
GRID2IP_1, A4D2P6, sequence (A4D2P6 1-87): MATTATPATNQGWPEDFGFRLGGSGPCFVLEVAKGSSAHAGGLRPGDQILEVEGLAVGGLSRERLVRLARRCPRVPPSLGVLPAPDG

Binder: LETREPTNTL [GRIP1, Q9Y3R0]
- pKd (MAST1, Q9Y2H9): below the threshold
- pKd (MAGI3_2, Q5TCQ9): below the threshold
- pKd (Inadl_1, Q8NI35): below the threshold
- pKd (APBA1_1, Q02410): below the threshold
- pKd (FRMPD2_1, Q68DX3): below the threshold
- pKd (SNTB1, Q13884): below the threshold
- pKd (SYNJ2BP, P57105): below the threshold
- pKd (GRID2IP_2, A4D2P6): below the threshold
- pKd (SHANK1, Q9Y566): below the threshold
- pKd (NHERF4_4, Q86UT5): below the threshold
- pKd (HTRA3, P83110): below the threshold
- pKd (LNX2_3, Q8N448): below the threshold
- pKd (GIPC2, Q8TF65): below the threshold
- pKd (MPDZ_10, O75970): below the threshold
- pKd (APBA1_2, Q02410): below the threshold
- pKd (DLG2_2, Q15700): below the threshold
- pKd (PDZD7_3, Q9H5P4): below the threshold
- pKd (GRIP1_3, Q9Y3R0): below the threshold
- pKd (GRID2IP_1, A4D2P6): below the threshold
- pKd (TX1BP3, O14907): below the threshold
- pKd (GRIP1_7, Q9Y3R0): below the threshold
- pKd (MPP7, Q5T2T1): below the threshold
- pKd (PARD3_3, Q8TEW0): below the threshold

Binder: TMQMSLKDLL [GLA, P06280]
- pKd (MAST1, Q9Y2H9): 4.03
- pKd (MAGI3_2, Q5TCQ9): below the threshold
- pKd (Inadl_1, Q8NI35): below the threshold
- pKd (APBA1_1, Q02410): below the threshold
- pKd (FRMPD2_1, Q68DX3): below the threshold
- pKd (SNTB1, Q13884): below the threshold
- pKd (SYNJ2BP, P57105): below the threshold
- pKd (GRID2IP_2, A4D2P6): 3.69
- pKd (SHANK1, Q9Y566): 3.59
- pKd (NHERF4_4, Q86UT5): below the threshold
- pKd (HTRA3, P83110): below the threshold
- pKd (LNX2_3, Q8N448): below the threshold
- pKd (GIPC2, Q8TF65): 3.62
- pKd (MPDZ_10, O75970): below the threshold
- pKd (APBA1_2, Q02410): 3.53
- pKd (DLG2_2, Q15700): 3.62
- pKd (PDZD7_3, Q9H5P4): below the threshold
- pKd (GRIP1_3, Q9Y3R0): below the threshold
- pKd (GRID2IP_1, A4D2P6): below the threshold
- pKd (TX1BP3, O14907): below the threshold
- pKd (GRIP1_7, Q9Y3R0): below the threshold
- pKd (MPP7, Q5T2T1): below the threshold
- pKd (PARD3_3, Q8TEW0): 3.54

Binder: RALRASESGI [ADGRE5, P48960]
- pKd (MAST1, Q9Y2H9): below the threshold
- pKd (MAGI3_2, Q5TCQ9): below the threshold
- pKd (Inadl_1, Q8NI35): below the threshold
- pKd (APBA1_1, Q02410): below the threshold
- pKd (FRMPD2_1, Q68DX3): below the threshold
- pKd (SNTB1, Q13884): below the threshold
- pKd (SYNJ2BP, P57105): 3.79
- pKd (GRID2IP_2, A4D2P6): below the threshold
- pKd (SHANK1, Q9Y566): below the threshold
- pKd (NHERF4_4, Q86UT5): below the threshold
- pKd (HTRA3, P83110): below the threshold
- pKd (LNX2_3, Q8N448): below the threshold
- pKd (GIPC2, Q8TF65): below the threshold
- pKd (MPDZ_10, O75970): below the threshold
- pKd (APBA1_2, Q02410): below the threshold
- pKd (DLG2_2, Q15700): below the threshold
- pKd (PDZD7_3, Q9H5P4): below the threshold
- pKd (GRIP1_3, Q9Y3R0): below the threshold
- pKd (GRID2IP_1, A4D2P6): below the threshold
- pKd (TX1BP3, O14907): below the threshold
- pKd (GRIP1_7, Q9Y3R0): below the threshold
- pKd (MPP7, Q5T2T1): below the threshold
- pKd (PARD3_3, Q8TEW0): below the threshold

Binder: PMESGICTIV [TTC24, A2A3L6]
- pKd (MAST1, Q9Y2H9): 4.74
- pKd (MAGI3_2, Q5TCQ9): 4.52
- pKd (Inadl_1, Q8NI35): below the threshold
- pKd (APBA1_1, Q02410): below the threshold
- pKd (FRMPD2_1, Q68DX3): 3.56
- pKd (SNTB1, Q13884): 4.58
- pKd (SYNJ2BP, P57105): 3.79
- pKd (GRID2IP_2, A4D2P6): 4.17
- pKd (SHANK1, Q9Y566): 4.04
- pKd (NHERF4_4, Q86UT5): below the threshold
- pKd (HTRA3, P83110): 3.92
- pKd (LNX2_3, Q8N448): below the threshold
- pKd (GIPC2, Q8TF65): below the threshold
- pKd (MPDZ_10, O75970): 3.76
- pKd (APBA1_2, Q02410): 4.75
- pKd (DLG2_2, Q15700): 4.87
- pKd (PDZD7_3, Q9H5P4): 5.23
- pKd (GRIP1_3, Q9Y3R0): below the threshold
- pKd (GRID2IP_1, A4D2P6): below the threshold
- pKd (TX1BP3, O14907): below the threshold
- pKd (GRIP1_7, Q9Y3R0): below the threshold
- pKd (MPP7, Q5T2T1): below the threshold
- pKd (PARD3_3, Q8TEW0): 4.29

Binder: GCQGETEDVL [PTH2R, P49190]
- pKd (MAST1, Q9Y2H9): 3.92
- pKd (MAGI3_2, Q5TCQ9): below the threshold
- pKd (Inadl_1, Q8NI35): below the threshold
- pKd (APBA1_1, Q02410): below the threshold
- pKd (FRMPD2_1, Q68DX3): below the threshold
- pKd (SNTB1, Q13884): below the threshold
- pKd (SYNJ2BP, P57105): below the threshold
- pKd (GRID2IP_2, A4D2P6): below the threshold
- pKd (SHANK1, Q9Y566): below the threshold
- pKd (NHERF4_4, Q86UT5): below the threshold
- pKd (HTRA3, P83110): below the threshold
- pKd (LNX2_3, Q8N448): below the threshold
- pKd (GIPC2, Q8TF65): below the threshold
- pKd (MPDZ_10, O75970): below the threshold
- pKd (APBA1_2, Q02410): 3.52
- pKd (DLG2_2, Q15700): below the threshold
- pKd (PDZD7_3, Q9H5P4): below the threshold
- pKd (GRIP1_3, Q9Y3R0): below the threshold
- pKd (GRID2IP_1, A4D2P6): below the threshold
- pKd (TX1BP3, O14907): below the threshold
- pKd (GRIP1_7, Q9Y3R0): below the threshold
- pKd (MPP7, Q5T2T1): below the threshold
- pKd (PARD3_3, Q8TEW0): 4.32

Binder: SRPRPDDLEI [GJA1, P17302]
- pKd (MAST1, Q9Y2H9): below the threshold
- pKd (MAGI3_2, Q5TCQ9): below the threshold
- pKd (Inadl_1, Q8NI35): below the threshold
- pKd (APBA1_1, Q02410): below the threshold
- pKd (FRMPD2_1, Q68DX3): below the threshold
- pKd (SNTB1, Q13884): below the threshold
- pKd (SYNJ2BP, P57105): below the threshold
- pKd (GRID2IP_2, A4D2P6): below the threshold
- pKd (SHANK1, Q9Y566): below the threshold
- pKd (NHERF4_4, Q86UT5): below the threshold
- pKd (HTRA3, P83110): below the threshold
- pKd (LNX2_3, Q8N448): below the threshold
- pKd (GIPC2, Q8TF65): below the threshold
- pKd (MPDZ_10, O75970): below the threshold
- pKd (APBA1_2, Q02410): below the threshold
- pKd (DLG2_2, Q15700): below the threshold
- pKd (PDZD7_3, Q9H5P4): below the threshold
- pKd (GRIP1_3, Q9Y3R0): below the threshold
- pKd (GRID2IP_1, A4D2P6): below the threshold
- pKd (TX1BP3, O14907): below the threshold
- pKd (GRIP1_7, Q9Y3R0): below the threshold
- pKd (MPP7, Q5T2T1): below the threshold
- pKd (PARD3_3, Q8TEW0): 3.74
